Biological target: the molecule itself
Assay: thioflavin T fluorescence + pelleting assay + negative stain TEM; de novo self-assembly into amyloid fibrils; 100 μM monomer in 20 mM sodium phosphate pH 7.4 with 0 mM NaCl, 37 °C, shaking with a Teflon polyball

B1: α-synuclein splice variant lacking the residues encoded by exons 3 and 5 (αSynΔ3Δ5) (natural protein)
chain: not shown
notes: made from the αSynΔ3 construct with the exon 5 deletion primers; natural splice isoform; No tag is named; Used as soluble monomer and as sonicated fibril seeds; source: E. coli BL21 DE3, purified (boiling, ammonium sulfate precipitation, anion exchange, SEC)
binding result: binds

From article PMC12593362, “Mapping the Role of Monomer Conformation in the Amyloid Formation of α‑Synuclein Splice Variants” (Journal of the American Chemical Society, 2025)
